Results reported in US20260069689A1 (Regeneron, published 2026).

B1: mAb14258 (antibody, V domains shown)
VH: QLQLQESGPGLVKPSETLSLICTGSGDSISSSHYYWGWIRQPPGKGLEWIGSTYFSGSTYYNPSLKSRVSISVDTSKNQVSLKLISVTAADTAVYYCAREMGATLGDYWGPGTLVTVSS
VL: QSVLTQPPSASGTPGQRVTISCSGSSSNIGNNYVYWYQQFPGTTPRLLIYRNNERPSGVPDRFSGSKSGTSASLVISGLRSEDEADYYCAAWDDSLSAHYVFGTGTKVTVLG
B2: mAb15162 (antibody, V domains shown)
VH: EVQLVETGGGLIQPGGSLRLSCAASEFIVSRNYMSWVRQAPGKGLEWVSLIYSGGSTYYADSVKGRFTISRDNSKNILYLQMNSLRAEDTAVYYCARDRGGISDYWGQGTLVTVSS
VL: DIQMTQSPSSLSASVGDRVTITCQASQDINKYLNWFQQKPGKAPKLLIYDASNLETGVPSRFSGSGSGTDFTFTISSLQPEDIATYYCQQYDNLPRTFGQGTKLEIKR
B3: mAb15151 (antibody, V domains shown)
VH: QVQLVESGGGVVQPGRSLRLSCAASGFVFNSYGMHWVRQAPGKGLEWVAVLWYEGSKNYYADSVKGRFTISRDNSKNTLYLQMNSLRAEDTAVYYCARHGSGSFFGYYLDYWGQGTLVTVSS
VL: DIQMTQSPSSLSASVGDRVTITCRASHNINDFLNWYQQKPGKAPRLLIYAASSLQSGVPSRFSGSGSGTDFTLTISSLQPEDFATYYCQESYTTPPTFGQGTKLEIKR
B4: mAb14313 (antibody, V domains shown)
VH: EVQLVESGGGLVQPGRSLRLSCVASGFTFDDSAMHWVRQPPGKGLEWVSGISWNSGIIGYAESVKGRFIISRDNAKNSLFLHMRGLRPEDTAVYYCARDRLELSYYYYGMDVWGQGTTVTVSS
VL: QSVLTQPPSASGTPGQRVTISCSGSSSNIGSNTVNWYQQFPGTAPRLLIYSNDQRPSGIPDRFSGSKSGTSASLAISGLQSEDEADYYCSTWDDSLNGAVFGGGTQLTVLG
B5: mAb14284 (antibody, V domains shown)
VH: QITLKESGPTLVKPTQTLTLTCTFSGFSFSTSGVGVGWIRQPPGKTLEWLALIYWDDDKRYSPSLKSRLTITKDTSKNQVVLTMTNMDPVDTATYFCAHHGIPTIFGYWGQGALVTVSS
VL: QSALTQPASVSGSPGQSITISCTGTSSDLGVFNYVSWYQQHPGKAPKLMIYEVTNRPSGVSNRFSGSKSGNTASLTISGLQAEDEADYYCSSYTTSSTVFGGGTKLTVLG
B6: mAb14235 (antibody, V domains shown)
VH: QITLKESGPTLVKPTQTLTLTCTFSGFSLNTGGVGVGWIRQPPGNALEWLALIYWDDDKRYNPSLKTRLTISKDTSKNQVVLTMTNMDPVDTATYFCAHLTIAVIVDFWGQGTLVTVSS
VL: QSALTQPASVSGSPGQSITISCTATSSDVGTYNYVSWFQHHPGKAPKLMIYEVTNRPSGVSNRFSGSKSGNTASLTISGLQAEDEADYYCSSYTTTSIVFGGGTKLTVLG
B7: mAb14247 (antibody, V domains shown)
VH: QITLKESGPTLVKPTQTLTLTCTFSGFSLSTSAVGVGWIRQPPGKALEWLALIYWDDDKRYSPSLKSRLTITKDTSKNQLVLTMTNVDPVDTATYYCAHHTIQLIFDYWGQGTLVTVSS
VL: QSALTQPASVSGSPGQSITISCTATSSDVGNYNYVSWYQQHPGKAPKLMIYEVSNRPSGVSNRFSGSKSGNTASLTISGLQAEDEADYYCSSYTSSSTPLVFGGGTKLTVLG
B8: mAb15164 (antibody, V domains shown)
VH: EVQLVESGGGLVQPGGSLRLSCAASGFAVSSNYMTWVRQAPGKGLEWVATIYSGDSTYYADSVKGRFTISRHNSKNTLSLQMNSLRADDTAIYYCARLSGVLSGTYNGAFDIWGQGTMVTVSS
VL: QSALTQPASVSGSPGQSITISCTGTSSDFGNYNIVSWYQQHPGQAPKVMIYEGNKRPSGVSNRFSGSKSGHTASLTISGLQAEDEADYYCSSYAGSSTWVFGGGTKLTVLG
B9: mAb15165 (antibody, V domains shown)
VH: EVQLVESGGGLVQPGGSLRLSCAASGFTVSSNYMSWVRQAPGKGLEWVSAIYSGDSTYYADSVKGRFTISKDNSKNTLYLQMNSLRGEDTAVYYCARLGGALQAYDGAFDYWGQGTLATVSS
VL: QSALTQPASVSGSPGQSITISCTGTSSDFGSYNLVSWYQQHPGKAPKLMIYEGNKRPSGVSIRFSGSKSGNTASLTISGLQAEDEADYYCSSYAGSSTWVFGGGTKLTVLG
B10: mAb15166 (antibody, V domains shown)
VH: EVQLVESGGGLVQPGGSLRLSCAASGFTVTSNYMSWVRQAPGKGLEWVSAIYSGESTYYADSVKGRFTISRDSSKNTLYLQMNSLRVEDTAVYYCASIHDYSNYVGGFDPWGQGTLVTVSS
VL: QSALTQPASVSGSPGQSITISCTGPSSDFGSYNLVSWYQQHPGKAPKLMIYEGTKRPSGVSNRFSGSKSGNTASLTISGLQAEDEADYYCSSYAGSSTWVFGGGTKLTVLG
B11: mAb14289 (antibody, V domains shown)
VH: QVQLVQSGPEVKKPGASVKVSCKASGYTFTSYAISWVRQAPGQGLEWMGWISAYNGNTNYAQKLQGRVTMTTDTFTSTAYMELRSLRSDDTAVYYCAVPADHITFDYWGQGTLVTVSS
VL: EIVLTQSPGTLSLSPGERATLSCRASQSVSSYLAWYQQKPGQAPRLLIHGASSRATGIPDRFSGSGSGTDFTLTISRLEPEDFAVYYCQQYGSSFLTFGGGTKVEIKR
B12: mAb15161 (antibody, V domains shown)
VH: EVQLVESGGGLVQPGGSLRLSCAASGFTFSSYEMNWVRQAPGKGLEWVSYISSSGSILYYADSVKGRFTASRDNAKNSLYLQMNSLRAEDTGVYYCARREYQLLRPFEFWGQGTLVTVSS
VL: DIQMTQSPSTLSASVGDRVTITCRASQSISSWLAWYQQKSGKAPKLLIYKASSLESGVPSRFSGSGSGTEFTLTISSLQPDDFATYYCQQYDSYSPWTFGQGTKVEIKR
B13: mAb15170 (antibody, V domains shown)
VH: EVQLVESGGGLVQPGGSLRLSCAATGITVSSNYMSWVRQAPGKGLEWVSLIYSGGSTFYADSVKGRFTISRHNSKNTLYLQMSSLRAEDTAVYYCARDLVDFGMDVWGQGTTVTVSS
VL: DIQLTQSPSSLSASVGDRVTITCRASQGISNYLAWYQQKPGKAPKLLIYAASTLQSGVPSRFSGSGSGTDFTLTISSLQPEDFGTYYCQQLNSDSPTFGQGTKVEIKR
B14: mAb15163 (antibody, V domains shown)
VH: EVQLVETGGGLIQPGESLRLSCAASGFIVSTNYMNWVRQAPGKGLEWVSVIYRGGSTYYADSVKGRFTISRDNSKNTLFLQMNSLRAEDTAVYYCARGHEDFDYDTPASGAFDIWGQGTMVTVSS
VL: QSALTQPPSASGSPGQSVTISCTGTSSDVGGHNYVSWYQQHPGKAPKVMIYEVSKRPSGVPDRFSGSKSGNTASLTVSGLQAEDEADYYCSSYAGSNKFVFGTGTKVTVLG
B15: mAb14294 (antibody, V domains shown)
VH: EVQLVESGGGLVQPGGSLRLSCAASGFTFSNHWMDWVRQAPGKGLVWVSRINSDGSSTDYADSVRGRFTMSRDNAKNTLYLQMSSLRAEDTAVYYCAREGMIFGAVIIPGWYFDLWGRGALVTVSS
VL: EIVLTQSPGTLSLSPGERATLSCRASQSVSSSQLAWYQQKPGQAPRLLIYGASSRATGIPDRFSGSGSGTDFTLTISRLEPEDFAVYYCQQYDSFGQGTKLEIKR
B16: mAb15150 (antibody, V domains shown)
VH: EVQLVETGGGLIQPGGSLRLSCAAPGFIVSSNYMSWVRQAPGKGLEWVSLLYPGGSTYYADSVKGRFTISRDNSKNTLYLQMNSLRADDTAVYYCARVLPIVEDHFDYWGQGTLVTVSS
VL: DIQLTQSPSFLSASVGDRVTITCRASQGMSSYLAWYQKKPGKAPKLLIYGATILQSGVPSRFSGSGSGTEFTLTISSLQPEDFATYYCQQLNSDPLYMYTFGQGTKLEIKR
B17: mAb14283 (antibody, V domains shown)
VH: QVQLQESGPGLVKPSGTLSLTCDVSGGSISSNNWWSWVRQRPGKGLQWIGEIYHNENTNYNPSLKSRVIMSIDKSKNQFSLKLTSVTAADTAVYYCARGDVLDWFDPWGQGTLVTVSS
VL: QSALTQPASVSGSPGQSTTISCTGTSSDVGGYNYVSWYQQYPGKAPKLMIYDVTNRPSGVSHRFSGSKSGNTASLTISGLQAEDEADYYCSSYTSSSTVIFGGGTKLTVLG
B18: mAb13458 (antibody, V domains shown)
VH: EVQLVESGGGLVQPGRSLRLSCAASGFTFDDYAMHWVRQAPGKGLEWVSGISWNSGSIGYADSVKGRFTISRDNAKNSLYLQMNSLRAEDTALYYCAKDIGITTPYWGQGTLVTVSS
VL: AIQMTQSPSSLSASVGDRVTITCRASQDIRNDLGWYQQKPGKAPKLLIYSASSLQTGVPSRFSGSGSGTDFTLTISSLHPEDFATYYCLQDYWYTWTFGQGTKVEIKR
B19: mAb13459 (antibody, V domains shown)
VH: EVQLVESGGGLVQPGRSLRLSCAASGFTFDDYAMHWVRQAPGKGLEWVSGISWNSGSIGYADSVKGRFTISRDNAKNSLYLQMNSLRAEDTALYYCAKDIGITTPYWGQGTLVTVSS
VL: AIQMTQSPSSLSASVGDRVTITCRASQDIRNDLGWYQQKPGKAPKLLIYSASSLQTGVPSRFSGSGSGTDFTLTISSLHPEDFATYYCLQDYNYVWTFGQGTKVEIKR

target: SARS-COV-2 RBD extracellular domain expressed with a C-terminal myc-myc-hexahistidine tag (SARS-CoV-2); experiment: SPR (Biacore), mAb captured by anti-human Fc, RBD-mmH in solution, 25 C

Binder | Kd [nM] | koff [s⁻¹] | kon [M⁻¹ s⁻¹] | t½ [min]
B1 | 0.854 | 0.00161 | 1.89e+06 | 7.2
B2 | 7.3 | 0.00085 | 116000 | 13.6
B3 | 3.89 | 0.000778 | 200000 | 14.8
B4 | 1.53 | 0.00217 | 1.42e+06 | 5.3
B5 | 0.824 | 0.000549 | 666000 | 21
B6 | 1.33 | 0.00105 | 789000 | 11
B7 | 1.94 | 0.00163 | 838000 | 7.1
B8 | 1.53 | 0.000349 | 228000 | 33.1
B9 | 0.393 | 0.000212 | 539000 | 54.6
B10 | 21.7 | 0.00535 | 246000 | 2.2
B11 | 1.36 | 0.00158 | 1.16e+06 | 7.3
B12 | 1.35 | 0.000234 | 173000 | 49.3
B13 | 0.1 | 1.53e-05 | 200000 | 756
B14 | 0.0779 | 1.67e-05 | 218000 | 693
B15 | 0.914 | 0.000548 | 600000 | 21.1
B16 | 0.0594 | 4.61e-05 | 774000 | 251
B17 | 1.08 | 0.00158 | 1.46e+06 | 7.3
B18 | 1.53 | 0.00139 | 909000 | 8.3
B19 | 2.51 | 0.00174 | 693000 | 6.6
